B1: Acid-sensing ion channel 3 (Rattus norvegicus (Rat)), O35240 (parent)
chain: MKPRSGLEEAQRRQASDIRVFASSCTMHGLGHIFGPGGLTLRRGLWATAVLLSLAAFLYQVAERVRYYGEFHHKTTLDERESHQLTFPAVTLCNINPLRRSRLTPNDLHWAGTALLGLDPAEHAAYLRALGQPPAPPGFMPSPTFDMAQLYARAGHSLEDMLLDCRYRGQPCGPENFTVIFTRMGQCYTFNSGAHGAELLTTPKGGAGNGLEIMLDVQQEEYLPIWKDMEETPFEVGIRVQIHSQDEPPAIDQLGFGAAPGHQTFVSCQQQQLSFLPPPWGDCNTASLDPDDFDPEPSDPLGSPRPRPSPPYSLIGCRLACESRYVARKCGCRMMHMPGNSPVCSPQQYKDCASPALDAMLRKDTCVCPNPCATTRYAKELSMVRIPSRASARYLARKYNRSESYITENVLVLDIFFEALNYEAVEQKAAYEVSELLGDIGGQMGLFIGASLLTILEILDYLCEVFQDRVLGYFWNRRSAQKRSGNTLLQEELNGHRTHVPHLSLGPRPPTTPCAVTKTLSASHRTCYLVTRL
partner: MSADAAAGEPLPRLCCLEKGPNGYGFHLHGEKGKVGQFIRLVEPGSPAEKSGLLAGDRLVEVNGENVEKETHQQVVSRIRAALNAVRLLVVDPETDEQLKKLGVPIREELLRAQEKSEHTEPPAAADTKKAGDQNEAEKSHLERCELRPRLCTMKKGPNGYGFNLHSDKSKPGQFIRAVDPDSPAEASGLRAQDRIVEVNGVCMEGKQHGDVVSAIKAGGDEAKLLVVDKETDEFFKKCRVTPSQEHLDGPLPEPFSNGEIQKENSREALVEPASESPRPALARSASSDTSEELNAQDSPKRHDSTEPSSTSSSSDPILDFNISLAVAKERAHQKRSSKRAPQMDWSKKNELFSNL

Variants of: B1
Conditions: with nhrf1_rat Nherf1, Q9JJ19

| effect of a mutation on the interaction | Variant |
| --- | --- |
| decreasing interaction | S523G |
| increasing interaction | S523D |
